Data on two molecules can be found in patent publication US20180339041A1 (Kyowa Kirin, published 2018).

The labels stand for the following.
T1: human Sky forcedly expressed on HEK293F reporter cells (human, UniProt Q06418 41-890)
T1 sequence (looked up): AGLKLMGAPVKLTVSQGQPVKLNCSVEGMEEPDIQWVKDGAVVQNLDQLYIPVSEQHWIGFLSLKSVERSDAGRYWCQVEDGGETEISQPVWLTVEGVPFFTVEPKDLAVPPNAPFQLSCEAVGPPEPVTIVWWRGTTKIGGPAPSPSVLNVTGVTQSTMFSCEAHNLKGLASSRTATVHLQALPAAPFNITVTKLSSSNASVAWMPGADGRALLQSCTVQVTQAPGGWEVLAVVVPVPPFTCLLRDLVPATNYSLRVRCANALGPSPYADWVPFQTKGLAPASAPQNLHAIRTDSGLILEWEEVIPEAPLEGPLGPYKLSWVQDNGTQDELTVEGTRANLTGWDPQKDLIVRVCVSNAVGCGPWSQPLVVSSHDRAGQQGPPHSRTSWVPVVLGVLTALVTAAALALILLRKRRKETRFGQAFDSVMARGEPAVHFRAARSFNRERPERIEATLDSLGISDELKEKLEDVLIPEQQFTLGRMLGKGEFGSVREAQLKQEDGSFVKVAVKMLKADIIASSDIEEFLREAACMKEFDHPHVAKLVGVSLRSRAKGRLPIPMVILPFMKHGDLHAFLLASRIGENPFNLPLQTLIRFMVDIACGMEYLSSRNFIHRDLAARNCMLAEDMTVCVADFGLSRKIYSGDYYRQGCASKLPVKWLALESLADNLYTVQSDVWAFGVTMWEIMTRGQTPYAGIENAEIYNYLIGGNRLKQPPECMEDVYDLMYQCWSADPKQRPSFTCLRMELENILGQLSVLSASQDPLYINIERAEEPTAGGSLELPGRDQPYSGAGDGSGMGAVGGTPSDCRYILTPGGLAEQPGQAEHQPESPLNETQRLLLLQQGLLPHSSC

T2: human Mer forcedly expressed on HEK293F reporter cells (human, UniProt Q12866 21-999)
T2 sequence (looked up): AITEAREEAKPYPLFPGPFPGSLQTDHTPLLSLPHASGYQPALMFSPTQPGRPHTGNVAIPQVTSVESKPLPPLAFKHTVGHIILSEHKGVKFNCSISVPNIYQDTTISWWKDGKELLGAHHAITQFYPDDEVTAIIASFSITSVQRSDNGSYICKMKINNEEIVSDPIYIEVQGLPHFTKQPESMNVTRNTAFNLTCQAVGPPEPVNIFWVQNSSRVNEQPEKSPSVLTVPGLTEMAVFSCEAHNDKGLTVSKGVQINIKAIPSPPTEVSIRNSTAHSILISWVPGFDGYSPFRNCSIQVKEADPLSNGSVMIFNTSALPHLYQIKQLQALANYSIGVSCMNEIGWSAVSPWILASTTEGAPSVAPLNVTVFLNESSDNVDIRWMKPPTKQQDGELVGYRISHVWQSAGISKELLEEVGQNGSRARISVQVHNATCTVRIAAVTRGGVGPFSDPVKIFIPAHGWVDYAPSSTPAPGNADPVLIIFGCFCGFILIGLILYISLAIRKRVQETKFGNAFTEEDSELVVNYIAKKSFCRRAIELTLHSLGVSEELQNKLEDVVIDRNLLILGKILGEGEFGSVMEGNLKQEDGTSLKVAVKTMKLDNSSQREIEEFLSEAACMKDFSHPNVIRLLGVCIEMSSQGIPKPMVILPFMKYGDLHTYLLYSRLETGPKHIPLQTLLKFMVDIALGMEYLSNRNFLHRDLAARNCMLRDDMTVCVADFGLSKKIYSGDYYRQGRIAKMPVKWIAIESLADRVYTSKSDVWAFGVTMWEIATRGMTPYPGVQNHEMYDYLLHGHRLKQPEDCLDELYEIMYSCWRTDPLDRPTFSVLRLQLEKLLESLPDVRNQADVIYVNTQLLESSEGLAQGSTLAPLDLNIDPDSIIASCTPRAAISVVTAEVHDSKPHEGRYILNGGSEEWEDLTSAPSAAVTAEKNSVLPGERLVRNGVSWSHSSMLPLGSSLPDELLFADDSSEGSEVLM

B1: KM5320 chimeric antibody (antibody, V domains shown)
VH: QIQLVQSGPELKKPGETVKISCKASGYTFTNYGMNWVKQAPGKGLKWMGWINTETGEPTYSDDFKGRFAFSLETSATTAYLQINNLRNEDMATYFCAREDGYYGTLDYWGQGTSVTVSS
VL: SIVMTQTPKFLLVSAGDRVTITCKASQSVSNDVAWYQQKPGQSPKVLIYYASNRYTGVPDRFTGSGYGTDFTFTISTVQAEDLAVYFCQQDYSSPWTFGGGTKLEIK
notes: also called KM5320 chimera; A-01
B2: C-terminally FLAG-tagged human Gas6 recombinant protein (hGas6-F) (ligand, not shown: small tags and cut ends)
chain: ALLPAREATQFLRPRQRRAFQVFEEAKQGHLERECVEELCSREEAREVFENDPETDYFYPRYLDCINKYGSPYTKNSGFATCVQNLPDQCTPNPCDRKGTQACQDLMGNFFCLCKAGWGGRLCDKDVNECSQENGGCLQICHNKPGSFHCSCHSGFELSSDGRTCQDIDECADSEACGEARCKNLPGSYSCLCDEGFAYSSQEKACRDVDECLQGRCEQVCVNSPGSYTCHCDGRGGLKLSQDMDTCEDILPCVPFSVAKSVKSLYLGRMFSGTPVIRLRFKRLQPTRLVAEFDFRTFDPEGILLFAGGHQDSTWIVLALRAGRLELQLRYNGVGRVTSSGPVINHGMWQTISVEELARNLVIKVNRDAVMKIAVAGDLFQPERGLYHLNLTVGGIPFHEKDLVQPINPRLDGCMRSWNWLNGEDTTIQETVKVNTRMQCFSVTERGSFYPGSGFAFYSLDYMRTPLDVGTESTWEVEVVAHIRPAADTGVLFALWAPDLRAVPLSVALVDYHSTKKLKKQLVVLAVEHTALALMEIKVCDGQEHVVTVSLRDGEATLEVDGTRGQSEVSAAQLQERLAVLERHLRSPVLTFAGGLPDVPVTSAPVTAFYRGCMTLEVNRRLLDLDEAAYKHSDITAHSCPPVEPAAA
modifications: gamma-carboxylated glutamic acid residues in the Gla domain (producer cells co-express rat VKOR and human GGCX); positions not given

Assay [1] addresses B2. Description: competitive ELISA, inhibition of hGas6-F binding to immobilised hAxl-hFc. (In an ELISA, binding on a coated surface is turned into a signal by an enzyme label.)
For assay [2], the target named is B2. Nature of the assay: SPR Biacore T100, captured antibody, Gas6 analyte, retest. As for the experimental part: (§1) An anti-human IgG antibody was immobilized on a CM5 sensor chip (manufactured by GE Healthcare Japan Corp.) using Human Antibody Capture Kit (manufactured by GE Healthcare Japan Corp.) according to the attached manual. Each test antibody adjusted to 1 μg/mL was added for 10 seconds at a flow rate of 10 μL/min to flow cells. […] The measurement was performed by the […] method. The obtained sensorgram was analyzed using Bia Evaluation Software (manufactured by GE Healthcare Japan Corp.), and the kinetic constant of each antibody was calculated.
In this retest, unlike the test mentioned above, the number of antibodies to be measured and variations in the concentration of the analyte were decreased, and the assay was conducted for a short time (within several hours), instead of sufficiently leaving standing the analyte added to the vial. […] This minimizes the adsorption of the analyte to the vial and permits more accurate calculation of ka and KD values than that in the test mentioned above.
In general terms: In SPR one partner is held on a chip, and binding of the other changes the refractive index at the surface.

Assay [3] addresses B2. Description: SPR Biacore T100, captured antibody, Gas6 analyte, first test.
In assay [4] the target is B2. Nature of the assay: ELISA, hGas6-F captured by anti-FLAG, anti-human IgG-HRP. As to the method: First, 2 μg/mL anti-FLAG antibody [Monoclonal ANTI-FLAG M2 antibody produced in mouse (manufactured by Sigma-Aldrich Co. LLC) diluted with PBS (manufactured by Nacalai Tesque, Inc.)] was dispensed at 50 μL/well to a 96-well plate for ELISA (manufactured by Nalge Nunc International), and the plate was left standing overnight at 4° C. for adsorption. After removal of the immobilization solution, 1% BSA-PBS (manufactured by Nacalai Tesque, Inc.) was added thereto at 300 μL/well, and the plate was left standing at room temperature for 1 hour for blocking and washed five times with Tween 20-PBS (manufactured by Wako Pure Chemical Industries Ltd.).
In order to reduce the backgrounds of measurement values, the diluted secondary antibody solution was mixed with 50 μg/mL of an anti-DNP mouse IgG1 antibody and incubated at room temperature for 1 hour for use.

For assay [5], the target named is B2. Nature of the assay: SPR Biacore T100, captured antibody, Gas6 analyte, first test; reference line A-01 printed again at the head of the LV5 HV-series block (r24), same as r7. As to the method: as §1
Assay [6] deals with T1, human Sky forcedly expressed on HEK293F …. Description: cell-based or functional assay.
Assay [7] deals with T2, human Mer forcedly expressed on HEK293F …. Nature of the assay: cell-based or functional assay.

A value given as a limit tells only on which side of the number the result lay.

For the molecule B1, the IC50 – broadly, the concentration at which inhibition is half-maximal – in assay [1] was determined as 0.0218 µg/mL. Also, the Kd (in general, a measure of binding affinity in units of concentration) in assay [2] is 0.73 nM; in assay [3] it was less than 1.87 nM. Moreover, the koff (usually the rate constant with which the complex falls apart) in assay [2] is 0.000135 s⁻¹; in assay [3] it was 0.000156 s⁻¹. The kon (usually a measure of how fast the partners come together) in assay [2] was 186000 M⁻¹ s⁻¹; in assay [3], greater than 83700 M⁻¹ s⁻¹; in assay [5], greater than 83700 M⁻¹ s⁻¹. The EC50 – broadly, the concentration at which the effect is half-maximal – in assay [4] stood at 0.0113 µg/mL.
For the molecule B2, the “luminescence intensity (Egr1-luciferase reporter, HEK293F forced to express human Sky)” value in assay [6] is roughly 3 fold. In addition, the “luminescence intensity (Egr1-luciferase reporter, HEK293F forced to express human Mer)” value in assay [7] was roughly 3 fold.
